Laboratory results reported in patent US20130004527A1.

B1: AllerR4.3 (peptide)
peptide: MHDVKVNPGGLIKSNDGPAAPRAGSDGDAISISGSSQIWIDHCSLSKSVDGLVDAKLGTTR
B2: AllerR5 (peptide)
peptide: TVAFNTFTDNVDQRMPRCRHGFFQVVNNNYDKWGSYAIGGSASPTILSQGNRFCAPDERSKKNVLGRHGE
B3: AllerR6 (peptide)
peptide: VLGRHGEAAAESMKWNWRTNKDVLENGAIFVASGVDPVLTPEQSAGMIPAEPGESALSLTSSAGVLSCQPGA
B4: AllerR1 (peptide)
peptide: TSGAYNIIDGCWRGKADWAENRKALADCAQGFGKGTVGGKDGDIYTVTSELDDDVANPK
B5: AllerR2 (peptide)
peptide: DVANPKEGTLRFGAAQNRPLWIIFERDMVIRLDKEMVVNSDKTIDGRGAKVE

Target: IgE in a panel of sera from 22 patients allergic to ragweed (human)
Test: competition ELISA; tested as AllerR mix with 22 sera

Binder | highest concentration without competition
TIDGRGAKVEIINAGFTLNGVKNVIIHNINMHDVKVNPGGLIK [AllerR3] | > 10 µM
B1 | > 10 µM
VDAKLGTTRLTVSNSLFTQHQFVLLFGAGDENIEDRGMLATVAFNTFTDN [AllerR4.2] | > 10 µM
B2 | > 10 µM
B3 | > 10 µM
B4 | > 10 µM
B5 | > 10 µM
